Reference: US20260250737A1, “Engineered Luciferases and Luciferin Substrates” (Monod Bio, Inc., priority 2023, published 2026)

B1: 5261 (protein)
chain: MTPEEIRANVRAFYAALASGDLAAARALFDPGVTITLWDGTTFTSVEEFRAWFEEQFQTSKDALREIESIEVEGDTVRVLVRLTFTRDGVTQEVDLLQLFKFV
B2: 5267 (protein)
chain: MTPEEILANVRAFYAALASGDLAAAKALFDPGVTITLWDGTTFTSVEEFRAWFEEQFKTSKDALREIVSAEVEGDTVRVLVRLTFTRDGKVEEVDLLQLFKFV
B3: 5280 (protein)
chain: MTPEEIRANVRAFYAALASGDWEAARALFDPGVTITLWDGTTFTSVEEFRAWFEKQFQTSKDALREIVALEVEGDVVRVLVRLTFVRDGVEQEVDLLQLFKFV
B4: 5284 (protein)
chain: MTPEERFANVRAFYEALASGDLEAAKALFDPGVTITLWDGTTFTSVEEFRAWFEEQFQTSKDALREIVDMEVEGDTVRVLVRLTFTRNGETQEVDLLQLFKFV
B5: 5262 (protein)
chain: MTPEERIENVRAFYAALASGDWAAARALFDPGVTITLWDGTTFTSVEEFRAWFEKQFKTSKDALREIESIEVEGDTVRVLVRLTFTRDGKEEEVDLLQLFKFV
B6: 5266 (protein)
chain: MTPEEIRANVRAFYAALASGDLAAAKALFDPGVTITLWDGTTFTSVEEFRAWFEEQFQTSKDALREIVSLRVEGDTVRVLVRLTFTRDGKVQEVDLLQLFKFV
B7: 5276 (protein)
chain: MTDEEIRANVRAFYAALASGDLEAAKALFDPGVTITLWDGTTFTSVEEFRAWFEKQFKTSKDALREIESLEVEGDTVRVLVRLTFVRDGKEQVVDLLQLFKFV
B8: 5274 (protein)
chain: MTPEEIRANVRAFYAALASGDWAAAEALFDPGVTITLWDGTTFTSVAEFRAWFEAQFQTSKDALREIVSLEVEGDVVRVLVRLTFVRDGRTEEVDLLQLFKFV
B9: 5271 (protein)
chain: MTPEEIRENVRNFYAALASGDLEAAKALFDPGVTITLWDGTTFTSVEEFRAWFEEQFKTSKDALREIVSMEIEGDTVRVLVRLTFTRDGVEQVVDLLQLFKFV
B10: 5282 (protein)
chain: MTPEEIIANVRAFYAALASGDLEAAKALFDPGVTITLWDGTTFTSVEEFRAWFEQQFQTSKDALREIVSIEVEGDVVRVLVRLTFVRDGEEQVVDLLQLFKFV
B11: 5279 (protein)
chain: MTPEEIRENVRAFYAALASGDLAAAKALFDPGVTITLWDGTTFTSVEEFRAWFEEQFQTSKDALREIVSLEIEGDVVRVLVRLTFTRNGETQVVDLLQLFKFV
B12: 5103 (protein)
chain: MTPEQRIANVRAFYAALASGDLEAAKALFDPGVTITLWDGTTFTSLEEFLAWFEKQFDASKDAKREIVDIEVEGDVVRVLVRLTYTKDGKEKVVDLLQLLKFV
B13: 5104 (protein)
chain: MTPEEIRANVRAFYAALASGDLAAAKALFDPGTTITLWDGTTFTSLEEFLAWFEKQFKASKDAKREIVSLEVEGDTVRVLVRLTYTVDGKEKVVDLLQLLKFV
B14: 5264 (protein)
chain: MTPEEIRANVEAFYAALASGDWEAARALFDPGVTITLWDGTTFTSVEEFRAWFEEQFKTSKDALREIVDLEVEGDVVRVLVRLTFVRDGKEEVVDLLQLFKFV
B15: 5273 (protein)
chain: MTPEAIRENVRAFYAALASGDWEAAKALFDPGVTITLWDGTTFTSVEEFRAWFEKQFKTSKDALREIVSLEVEGDVVRVLVRLTFVRDGKEEVVDLLQLFKFV
B16: 5270 (protein)
chain: MTPEAIIANVKAFYAALASGDWAAARALFDPGVTITLWDGTTFTSVEEFRAWFEAQFETSKDALREIVSMEVEGDTVRVLVRLTFVRNGKEEVVDLLQLFKFV
B17: 5269 (protein)
chain: MTPEEIRENVRAFYAALASGDLAAAKALFDPGVTITLWDGTTFTSVEEFRAWFEKQFKTSKDALREIVSLEVEGDTVRVLVRLTFVRDGKEEVVDLLQLFKFV
B18: 5281 (protein)
chain: MTPEEIRANVEAFYAALASGDLEAAKSLFDPGVTITLWDGTTFTSVEEFRKWFEEQFKTSKDALREIVSMEIEGDTVRVLVRLTFVRDGKVEEVDLLQLFKFV
B19: 5268 (protein)
chain: MTPEEIRENVRRFYAALASGDLEAAKSLFDPGVTITLWDGTTFTSVEEFRAWFEEQFQTSKDALREIVSLEVEGDVVRVLVRLTFVRDGEVQEVDLLQLFKFV
B20: 5275 (protein)
chain: MTPEEIKENVLNFYAALASGDLEAAKALFDPGVTITLWDGTTFTSVEEFRAWFEKQFKTSKDALREIVSMEVEGDVVRVLVRLTFTRDGKVEEVDLLQLFKFV
B21: 5283 (protein)
chain: MTPEEIRANVERFYAALASGDLETAKALFDPGVTITLWDGTTFTSVEEFRKWFEEQFETSKDALREIVSMEVEGDTVRVLVRLTFVRNGEEKVVDLLQLFKFV
B22: 5278 (protein)
chain: MTPEAIRENVEAFYAALASGDWEAAKALFDPGVTITLWDGTTFTSVEEFRAWFEEQFQTSKDALREIVSMRIEGDTVRVLVRLTFTRDGETQVVDLLQLFKFV
B23: 5263 (protein)
chain: MTPEEIRANVLAFYAALASGDLAAAEALFDPGVTITLWDGTTFTSVAEFRAWFEAQFQTSKDALREIVDMRVEGDVVRVLVRLTFVRDGEEQVVDLLQLFKFV
B24: 5272 (protein)
chain: MTPEERIANVRAFYAALASGDWAAAEALFDPGVTITLWDGTTFTSVAEFRAWFEQQFQTSKDALREILDIEVEGDVVRVLVRLTFVRDGKEQVVDLLQLFKFV
B25: 5277 (protein)
chain: MTPEEIRANVRAFYAALASGDLEAAKALFDPGVTITLWDGTTFTSVEEFRKWFEEQFKTSKDALREIVEMRIEGDVVRVLVRLTFVRDGKEQVVDLLQLFKFV
B26: 5265 (protein)
chain: MTPEQIRANVRAFYAALASGDWAAAEALFDPGVTITLWDGTTFTSVAEFRAWFEEQFKTSKDALREIVSMEVEGDTVRVLVRLTFVRDGEEKVVDLLQLFKFV

System: SmLux
Test: Computationally generated LgLux variants expressed in E. coli, tested in lysates with SmLux and substrate 1c
Type: biochemical
Details: 50 uM substrate 1c; for Fold change upon SmLux peptide addition: 20 uM SmLux; for Baseline Signal (Normalized by expression): before SmLux peptide addition
Protocol: LgLux sequences were designed computationally, and their activity measured as depicted schematically in FIG. 45.
A library of the computationally generated LgLux variants were expressed in E. coli and tested in lysates. 20 uM of SmLux and 50 uM of substrate 1c was used for the screening.
LgLux_4039 sequence is as set forth in SEQ ID NO:2773. MBIO-5103 through MBIO-5124, MBIO-5261 through MBIO-5295, MBIO-5101, and MBIO-5102 (SEQ ID NO:2815-SEQ ID NO:2873, respectively) are computationally generated LgLux. The sequences and activity of these LgLux are shown below in Table 21.
MBIO-5358 and MBIO-5360 through MBIO-5381 (SEQ ID NO:2774-SEQ ID NO:2796, respectively) are computationally generated LgLux.

Molecule	Fold change upon SmLux peptide addition	Baseline Signal (Normalized by expression)
B1	2.16	176.8
B2	1.42	130.6
B3	1.07	129.2
B4	5.16	186.8
B5	2.29	139.6
B6	1.09	129.8
B7	6.45	125.6
B8	1.07	125.2
B9	10.11	145
B10	1.18	131.8
B11	1.12	111.8
B12	0.94	193.2
B13	0.97	180.8
B14	1.26	127.6
B15	1.01	140.4
B16	1.25	135.2
B17	1.1	137.2
B18	3.02	125.6
B19	1.05	133
B20	1.35	122.8
B21	1.14	141.4
B22	1.61	121.2
B23	1.38	137.4
B24	11.86	141.4
B25	1.19	120.6
B26	2.8	126.4
